# B1: CPEB3 Ribozyme (parent)
# chain: GGGGGCCACAGCAGAAGCGUUCACGUCGCGGCCCCUGUCAGAUUCUGGUGAAUCUGCGAAUUCUGCUGU
# Variants of: B1
# Assay: self-cleavage, relative activity (ratio to wild type); higher = more cleavage; co-transcriptional
row,Variant,self-cleavage
1,GGGGGCCACAGCAGAAGCGUUCACGUCGCGGCCCCUGUCAGAUUCUGGUGAAUCUGCGUAUUCUGCUGA [A59U U69A],0.901
2,GGGGGCCACAGCAGAAGCGUUCACGUCGCGGCCCCUGUCAGAUUCUGGUGAAUCUGCGUAUUCUGCUGG [A59U U69G],0.903
3,GGGGGCCACAGCAGAAGCGUUCACGUCGCGGCCCCUGUCAGAUUCUGGUGAAUCUGCGCAUUCUACUGU [A59C G65A],0.496
4,GGGGGCCACAGCAGAAGCGUUCACGUCGCGGCCCCUGUCAGAUUCUGGUGAAUCUGCGCAUUCUUCUGU [A59C G65U],0.342
5,GGGGGCCACAGCAGAAGCGUUCACGUCGCGGCCCCUGUCAGAUUCUGGUGAAUCUGCGUAUUCUGCGGU [A59U U67G],0.79
6,GGGGGCCACAGCAGAAGCGUUCACGUCGCGGCCCCUGUCAGAUUCUGGUGAAUCUGCCAAUUCUGUUGU [G58C C66U],1.02
7,GGGGGCCACAGCAGAAGCGUUCACGUCGCGGCCCCUGUCAGAUUCUGGUGAAUCUGCCAAUUCUGCGGU [G58C U67G],1.01
8,GGGGGCCACAGCAGAAGCGUUCACGUCGCGGCCCCUGUCAGAUUCUGGUGAAUCUGCAAAUUCUGCUGC [G58A U69C],1.06
9,GGGGGCCACAGCAGAAGCGUUCACGUCGCGGCCCCUGUCAGAUUCUGGUGAAUCUGCCAAUGCUGCUGU [G58C U62G],0.965
10,GGGGGCCACAGCAGAAGCGUUCACGUCGCGGCCCCUGUCAGAUUCUGGUGAAUCUGCGCAUUCUGCGGU [A59C U67G],0.772
11,GGGGGCCACAGCAGAAGCGUUCACGUCGCGGCCCCUGUCAGAUUCUGGUGAAUCUGCUAAUUCUGCUGU [G58U],0.994
12,GGGGGCCACAGCAGAAGCGUUCACGUCGCGGCCCCUGUCAGAUUCUGGUGAAUCUGCCAAUUCUGCUGU [G58C],0.985
13,GGGGGCCACAGCAGAAGCGUUCACGUCGCGGCCCCUGUCAGAUUCUGGUGAAUCUGCGGAUUCUACUGU [A59G G65A],0.895
14,GGGGGCCACAGCAGAAGCGUUCACGUCGCGGCCCCUGUCAGAUUCUGGUGAAUCUGCGCAGUCUGCUGU [A59C U61G],0.359
15,GGGGGCCACAGCAGAAGCGUUCACGUCGCGGCCCCUGUCAGAUUCUGGUGAAUCUGCGCAAUCUGCUGU [A59C U61A],0.483
16,GGGGGCCACAGCAGAAGCGUUCACGUCGCGGCCCCUGUCAGAUUCUGGUGAAUCUGCUAAUUCUGGUGU [G58U C66G],0.974
17,GGGGGCCACAGCAGAAGCGUUCACGUCGCGGCCCCUGUCAGAUUCUGGUGAAUCUGCGACUUCUGAUGU [A60C C66A],0.288
18,GGGGGCCACAGCAGAAGCGUUCACGUCGCGGCCCCUGUCAGAUUCUGGUGAAUCUGCGGAUACUGCUGU [A59G U62A],0.918
19,GGGGGCCACAGCAGAAGCGUUCACGUCGCGGCCCCUGUCAGAUUCUGGUGAAUCUGCGGAUUUUGCUGU [A59G C63U],1.01
20,GGGGGCCACAGCAGAAGCGUUCACGUCGCGGCCCCUGUCAGAUUCUGGUGAAUCUGCGACUUCCGCUGU [A60C U64C],0.452

row,Variant,self-cleavage
1,GGGGGCCACAGCAGAAGCGUUCACGUCGCGGCCCCUGUCAGAUUCUGGUGAAUCUGCGGAUUCUGCUGC [A59G U69C],1.06
2,GGGGGCCACAGCAGAAGCGUUCACGUCGCGGCCCCUGUCAGAUUCUGGUGAAUCUGCGGCUUCUGCUGU [A59G A60C],0.238
3,GGGGGCCACAGCAGAAGCGUUCACGUCGCGGCCCCUGUCAGAUUCUGGUGAAUCUGCGAGUACUGCUGU [A60G U62A],0.576
4,GGGGGCCACAGCAGAAGCGUUCACGUCGCGGCCCCUGUCAGAUUCUGGUGAAUCUGCGCUUUCUGCUGU [A59C A60U],0.378
5,GGGGGCCACAGCAGAAGCGUUCACGUCGCGGCCCCUGUCAGAUUCUGGUGAAUCUGCGAGUUCUGCUCU [A60G G68C],0.889
6,GGGGGCCACAGCAGAAGCGUUCACGUCGCGGCCCCUGUCAGAUUCUGGUGAAUCUGCGAGUUCUGCUAU [A60G G68A],0.987
7,GGGGGCCACAGCAGAAGCGUUCACGUCGCGGCCCCUGUCAGAUUCUGGUGAAUCUGCCAAUUCGGCUGU [G58C U64G],0.893
8,GGGGGCCACAGCAGAAGCGUUCACGUCGCGGCCCCUGUCAGAUUCUGGUGAAUCUGCGAGCUCUGCUGU [A60G U61C],0.365
9,GGGGGCCACAGCAGAAGCGUUCACGUCGCGGCCCCUGUCAGAUUCUGGUGAAUCUGCGACCUCUGCUGU [A60C U61C],0.355
10,GGGGGCCACAGCAGAAGCGUUCACGUCGCGGCCCCUGUCAGAUUCUGGUGAAUCUGCGACUACUGCUGU [A60C U62A],0.396
11,GGGGGCCACAGCAGAAGCGUUCACGUCGCGGCCCCUGUCAGAUUCUGGUGAAUCUGCGACUCCUGCUGU [A60C U62C],0.398
12,GGGGGCCACAGCAGAAGCGUUCACGUCGCGGCCCCUGUCAGAUUCUGGUGAAUCUGCUAAUUCUUCUGU [G58U G65U],0.948
13,GGGGGCCACAGCAGAAGCGUUCACGUCGCGGCCCCUGUCAGAUUCUGGUGAAUCUGCUAAUUCUACUGU [G58U G65A],0.961
14,GGGGGCCACAGCAGAAGCGUUCACGUCGCGGCCCCUGUCAGAUUCUGGUGAAUCUGCGAGUUCUGCAGU [A60G U67A],0.944
15,GGGGGCCACAGCAGAAGCGUUCACGUCGCGGCCCCUGUCAGAUUCUGGUGAAUCUGCGACUUCUGCUGA [A60C U69A],0.474
16,GGGGGCCACAGCAGAAGCGUUCACGUCGCGGCCCCUGUCAGAUUCUGGUGAAUCUGCGACUUCUGCUGG [A60C U69G],0.418
17,GGGGGCCACAGCAGAAGCGUUCACGUCGCGGCCCCUGUCAGAUUCUGGUGAAUCUGCGACUUCUACUGU [A60C G65A],0.438
18,GGGGGCCACAGCAGAAGCGUUCACGUCGCGGCCCCUGUCAGAUUCUGGUGAAUCUGCGACUUCUUCUGU [A60C G65U],0.308
19,GGGGGCCACAGCAGAAGCGUUCACGUCGCGGCCCCUGUCAGAUUCUGGUGAAUCUGCGAGUUCUCCUGU [A60G G65C],0.362

# — the RNAGym collection of RNA variant scans (doi:10.7554/elife.80360)
